{"source": "paper PMC5956896", "assay_in_all_cases": "pull-down", "key": {"[1]": {"target": "His6-GB1 tagged ITK PHTH (C96E/T110I) domain"}, "[2]": {"target": "ITK PHTH E56A"}, "[3]": {"target": "ITK PHTH L51D"}}}
{"substance": "His6 tagged mouse ITK kinase domain (residues 356-619) (domain or fragment)", "values": [{"measurement": "disruption of the interaction by 5 μM IP(1,3,4,5)P4", "setting": "[1]", "value": "> 50", "unit": "%"}, {"measurement": "decrease in binding compared to wild type ITK PHTH", "setting": "[2]", "value": 50, "unit": "%"}, {"measurement": "decrease in binding compared to wild type ITK PHTH", "setting": "[3]", "value": 50, "unit": "%"}]}
